Measurements from the nanobody polyreactivity screen of Harvey et al. (2022).

Experiment: yeast display, Sf9 membrane polyspecificity reagent, FACS + sequencing; frameworks hold sequencing errors
In short: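 A nanobody's polyreactivity label depends on the gate it was sorted from. Yeast display cells were stained with 10% biotinylated, detergent-solubilized Sf9 membrane reagent for 1 hour at 4 °C, enriched on streptavidin microbeads and sorted by FACS. The low and high (top ~1%) gates were set on anti-HA fluorescence for expression and streptavidin fluorescence for reagent binding.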

Sequence | polyreactivity (PSR sort gate)
QVQLVESGGGLVQAGGSLRLSCAASGPMFTSNAMGWYRQAPGKERELVAAISRRGTRTYYADSVKGRFTISRDNAKNTVYLQMNSLKPEDTAVYYCAATTGEQEDYWGQGTQVTVSS | high polyreactivity
QVQLVESGGGLVQAGGSLRLSCAASGPTFDVYAMGWYRQAPGKERELVATISWRGTSTYYADSVKGRFTISRDNAKNTVYLQMNSLKPEDTAVYYCAAEVYYEYYYWRYYWGQGTQVTVSS | high polyreactivity
QVQLVESGGGLVQAGGSLRLSCAASGPTFGVNAMGWYRQAPGKERELVAVISSTGSTNYADSVKGRFTISRDNAKNTVYLQMNSLKPEDTAVYYCAVGPNSVGNRSYGFDYWGQGTQVTVSS | low polyreactivity
QVQLVESGGGLVQAGGSLRLSCAASGPTFYKYAMGWYRQAPGKEREFVATITRRGGSTYYADSVKGRFTISRDNAKNTVYLQMNSLNPEDTAVYYCAKEIFLKGPDGHDYWGQGTQVTVSS | low polyreactivity
QVQLVESGGGLVQAGGSLRLSCAASGPTFYYYDMGLYRPAPGKERELVAAISATGGRTYYADSVKGRFTISRDNAKNTVYLQMNSLKPEDTAVYYCAAETPYLRRRLGMDYWGQGTQVTVSS | high polyreactivity
QVQLVESGGGLVQAGGSLRLSCAASGRFFVPYFIGSYRQAPGTERELVASISDSDTSTYYADSVKGRFTISRDNAKNTVYLQMNSLKPEDTAVYYCNVDYWGQGTQVTLSS | low polyreactivity
QVQLVESGGGLVQAGGSLRLSCAASGRIFADYAMGWNRHAPGKQRELVAAITWSGDRTYYADSVKGRFTISRDNAKNTVYLQMNSLKPEDTAVYYCAARARLRRYNYWGQGTQVTVSS | high polyreactivity
QVQLVESGGGLVQAGGSLRLSCAASGRIFAFNVMGWYRQAPGKEREMVAAISTRDGSTYYADSVKGRFTISRDNAKNTVYLQMNSLIPEDTAVYYCNAVVRYYDWGYWDYDYWGQGTQVTVSS | low polyreactivity
QVQLVESGGGLVQAGGSLRLSCAASGRIFAFYAMGWSRPAPGKERELVAAITSGGSTKYADSVKGRFTISRDNAKNTVYLQMNSLKPEDTAVYYCAAQYRYQRYSYAMEYWGQCTQVTVSS | high polyreactivity
QVQLVESGGGLVQAGGSLRLSCAASGRIFAFYAMGWYRQAPGKERELVAAITWSGGSTYYADSVKGRFTISRDNAKNTVYLQMNSLKPEDTAVYYCAARYRHYFVRGGYWGQGTQVTVSS | high polyreactivity
QVQLVESGGGLVQAGGSLRLSCAASGRIFAFYARGWYRQAPGKERELVAAITSGGSTKYADSVKGRFTISRDNAKNTVYLQMNSLKPEDTAVYYCAAQYRYQRYSYAMEYWGQGTQVTVSS | high polyreactivity
QVQLVESGGGLVQAGGSLRLSCAASGRIFAGYAMGWYRQAPGKERELVAAISNARRTNYADSVKGRFTISRDNAKNNVYLHMNSLKPEDTAVYYCAASRYGRKFSLYDYYYWGQGTQVTVSS | high polyreactivity
QVQLVESGGGLVQAGGSLRLSCAASGRIFAGYAMGWYRQAPGKERELVAAITTGGSTHYADSVKGRFTISRDNAKNTVYLQMNSLKPEDTAVYYCNAKVEFWESWGWLLDDDYWGQGTQVTVSS | low polyreactivity
QVQLVESGGGLVQAGGSLRLSCAASGRIFAHYTMGWYRQAPGKERELVAAISIRGGRTNYTDSVKGRFTISRDNAKNTVYLQMNSLKPEDTAVYYCNARGARYYWYQLGHDYWGQGTQVTVSS | high polyreactivity
QVQLVESGGGLVQAGGSLRLSCAASGRIFAKYAMGWYRQAPGKERELVAAISWGGGSTYYADSVKGRFTISRDNAKNTVYLQMNSLKPEDTAVYYCARRFKYGSTAWRFYYWGQGTQVTVSS | high polyreactivity
QVQLVESGGGLVQAGGSLRLSCAASGRIFALYAMGWYRQAPGKERELVAAITWRGGRTRYADSVKGRFTISRDNAKNTVYLQMNSLKPEDTAVYYCNKRLFASRYDYWGQGTQVTVSS | high polyreactivity
QVQLVESGGGLVQAGGSLRLSCAASGRIFALYAMGWYRQAPGKERELVASITGGTSTNYADSVKGRFTISRDNAKNTVYLQMNSLKPEDTEVYYCAARGYTTGTRNRRYNYWGQGTQVTVSS | high polyreactivity
QVQLVESGGGLVQAGGSLRLSCAASGRIFANNAMGWYRQAPGKERELVAAISWRSGGTYYADSVKGRFTISRDNAKNTVYLQMNSLKPEDTAVYYCARRSPHHGRDYWGQGTQVTVSS | low polyreactivity
QVQLVESGGGLVQAGGSLRLSCAASGRIFAPYAMGWYRQAPGKERELVAAIRISGDSTYYADSVKGRFTISRDNAKNTVYLQMNSLKPEDTAVYYCAAEYYILHWFGYAGYPAYNYWGQGTQVTVSS | high polyreactivity
QVQLVESGGGLVQAGGSLRLSCAASGRIFAPYAMGWYTQAPGKERELVAAISFSGGSTHYADSVKGRFTISRDNAKNTVYLQMNSLKPEDTAVYYCAAGWRSRLYRFGYWGQGTQVTVSS | high polyreactivity
QVQLVESGGGLVQAGGSLRLSCAASGRIFAQYAMGWYRQAPGKERELVADISSGVRTNADSVKGRFTISRDNAKNSVYLQMNSLKPEDTAVSYCNAYYIIFTRNDYWGQGTQVTVSS | low polyreactivity
QVQLVESGGGLVQAGGSLRLSCAASGRIFARKAMGRYRQAPGKEREWVATIRVGGGSTYYADSVKGRFTISRDNAKNTVYLQMNSLKPEDTAVYYFAVRQLYSYPGDRRGYDWGQGTQVTVSS | low polyreactivity

Sequence | polyreactivity (PSR sort gate)
QVQLVESGGGLVQAGGSLRLSCAASGRIFARNAMGWYRQAPGKERELVADITSTGSTNYADSVKGRFTISRDNAMNTVYLQMNSLKPEDTAVYYCAADYYTGYVWEDYYWGQGTQVTVSS | low polyreactivity
QVQLVESGGGLVQAGGSLRLSCAASGRIFARNAMGWYRQAPGKESELVAAITSSGSTYYADSVKGRFTISRDNAKNSVYLQMNSLKPEDTAVYYCAADGHAYRSNFWGQGTQVTVSS | low polyreactivity
QVQLVESGGGLVQAGGSLRLSCAASGRIFARNTMGWYRQAPGKERELVAAISWGGGRTYYADSVKGRFTISRDNAKNTVYLQMNSLKPEDTAVYYCAAETLQIPRGEYWGQGTQVNVSS | low polyreactivity
QVQLVESGGGLVQAGGSLRLSCAASGRIFARNTMGWYRQAPGKERELVAAISWGGGRTYYADSVKGRFTISRDNAKNTVYLQMNSLKPEDTAVYYCAAETLQIPRGEYWGQGTQVTVSS | low polyreactivity
QVQLVESGGGLVQAGGSLRLSCAASGRIFARYAMGWYRQAPGKERELVAAIRTSGGITYYADSVKWRFTISRDNAKNTVYLQMNSLKPEDTEVYYCAADFYSYSSVKYDYWGQGTQVTVSS | low polyreactivity
QVQLVESGGGLVQAGGSLRLSCAASGRIFARYAMGWYRQAPGKERELVAAISRGGSTKYADSVKGRFTISRDNAKNTVYLQMNSLKPEDTAVYYCAGQLWGSPYGAYYAGDYWGQGTQVTVSS | low polyreactivity
QVQLVESGGGLVQAGGSLRLSCAASGRIFARYAMGWYRQAPGKERELVAAITGGGRTNYADSVKGRFTISRDNAKNTVYLQMNSLKPEDTAVYYCAADTGYQNGKGLGYQNFGGYYWGQGTQVTVSS | high polyreactivity
QVQLVESGGGLVQAGGSLRLSCAASGRIFARYTMGWYRQAPGKEREFVAGIRSSGGRTYYADSVKGRFTISRDNAKNTVYLQMNSLKPEDTALYYCNAGGSWYFARYDYWGQGTQVTVSS | low polyreactivity
QVQLVESGGGLVQAGGSLRLSCAASGRIFATNAMGWYRQAPGKEMELVATITRSAGRTYYADSVKGRFTISRDNAKNTVYLQMNSLKPEDTAVYYCAASYWDTEPGYREYDYWGQGTQVTVSS | low polyreactivity
QVQLVESGGGLVQAGGSLRLSCAASGRIFATNAMGWYRQAPGKERELVAIITRSAGRTYYADSVKGRFTISRDKAKNTVYLQMNSLKPEDTAVYYCNTVPRPFDRYGYWGQGTQVTVSS | low polyreactivity
QVQLVESGGGLVQAGGSLRLSCAASGRIFATYAMGWYRQAPGKERELVAAISDSGGRTYYADSVKGRFTISRDNAKNTVYLQMNSLKPADTALYYCAAKNGDRYARGYWGQATQVTVSS | high polyreactivity
QVQLVESGGGLVQAGGSLRLSCAASGRIFAVNAMGWYRQAPGKERELVAAINGGGSTNYADSVKGRFTISRDNAKNTVYFQMNSLKPEDTAVYYCAADVGWRSQTRGYYWGQGTQVTVSS | high polyreactivity
QVQLVESGGGLVQAGGSLRLSCAASGRIFAWYVMGWYRQAPRKEREFVAAIRWRSGSTHYADSVKGRFTISRDNAKNTVYLQMNSLKPEDTAVYYCAVDSRTYNGDYWGQGTQVTVSS | high polyreactivity
QVQLVESGGGLVQAGGSLRLSCAASGRIFAYNTMGWYRQAPGKERELVAGITSGGSTNYADSVKGRFTISRDNAKNTVYLQMNSLQPEDTAVYYCAAVGRWGVTGSHHDAYDYWGQGTQVTVSS | high polyreactivity
QVQLVESGGGLVQAGGSLRLSCAASGRIFAYYAKGWYRQAPGKERELVAAISRSGVSTYYADSVKGRFTISRDNAKNTVYLQMNSLKPEDTAVYYCAARWRSGFTSGDYWGQGTQVTVSS | low polyreactivity
QVQLVESGGGLVQAGGSLRLSCAASGRIFCSYTMGWYRQAPGKERELVAAISWRGGSTYYADSVKGRFTISRDNAKNTVYLQMNSLKPEDTAVYYCAADSRSPPGDYWGQGTQVTVSS | low polyreactivity
QVQLVESGGGLVQAGGSLRLSCAASGRIFCVNAMGWYRQAPGKERELVAAINVSGGITYYADSVKGRFTISRDNAKNTVYLQMKSLKPEDTAVYYCAAVHWTWYTYYGPDYDYWGQGTQVTVSS | low polyreactivity
QVQLVESGGGLVQAGGSLRLSCAASGRIFDAYAMGWYRQAPGKERELLAAITQSGGSTFYADSVKGRFTISRDNAKNTVYLQMNSLKPEDTAVYYCAKDKFWFRVDGHYRMDYWGQGTQVTVSS | low polyreactivity
QVQLVESGGGLVQAGGSLRLSCAASGRIFDCYAMGWDRQAPGKERELVAAIRASGGRTYYADSVKGRFTISRDNAKNTVYLQMNSLKPEDTAVYYCAADSVKYGGDYGGQGTQVTVSS | high polyreactivity
QVQLVESGGGLVQAGGSLRLSCAASGRIFDDNTMGWSRQAPGKERELVAAISSGTSTYYADSVKGRFTISRDNAKNTVYLQMNSLKPEDTAVYYCAAVIKWTKDDYWGQGTQVTVSS | high polyreactivity
QVQLVESGGGLVQAGGSLRLSCAASGRIFDDYAMGWYRPAPGKERELVAAISSSGGSTYYADSLKGRFTISRDNAKNTVYLQINSLKPEDTAVYFCAASSFRSYYSGKYDYWGQGTQVTVSS | high polyreactivity
